Here are results for 14 molecules from US20240059757A1 (VIR BIOTECHNOLOGY, published 2024).

Positions count from the first letter of the chain named. Read-outs that look alike come from different tables or passages of the source.

The target in assay [1] is T1, SARS-CoV-2 Spike protein (SARS-CoV-2 Wuhan-Hu-1, UniProt P0DTC2 14-1273). As to the kind of experiment: cell-based or functional assay.
The target in assay [2] is T2, SARS-CoV-2 RBD-mouse Fc (Sino Biological) (SARS-CoV-2, UniProt P0DTC2 331-541).
Assay [3] concerns the target T2, SARS-CoV-2 RBD-mouse Fc (Sino …). The source holds these as a separate data set.
The target in assay [4] is T1, SARS-CoV-2 Spike protein. As to the kind of experiment: cell-based or functional assay. This is another data set of the same source.
Assay [5] concerns the target T3, SARS-CoV RBD (Sino Biological) (SARS-CoV, UniProt P59594 306-527). As to the kind of experiment: ELISA. For orientation: ELISA stands for enzyme-linked immunosorbent assay.
Assay [6] deals with T1, SARS-CoV-2 Spike protein.
For assay [7], the target named is T2, SARS-CoV-2 RBD-mouse Fc (Sino …). This is another data set of the same source.
In assay [8] the target is T4, SARS-CoV-2 RBD (residues 331-550 of spike from BetaCoV/Wuhan-Hu-1/2019, accession number MN908947) (SARS-CoV-2 Wuhan-Hu-1, UniProt P0DTC2 331-550). As to the kind of experiment: BLI (Octet): antibody on Protein A pins, SARS-CoV-2 RBD at 6, 1.5 and 0.4 µg/ml. For orientation: Biolayer interferometry detects binding as a change in optical thickness at a sensor tip.
For assay [9], the target named is T2, SARS-CoV-2 RBD-mouse Fc (Sino …). This is another data set of the same source.
The target of assay [10] is T3, SARS-CoV RBD (Sino Biological).
For assay [11], the target named is T1, SARS-CoV-2 Spike protein. The assay is described as follows: cell-based or functional assay. This is another data set of the same source.
Assay [12] addresses T1, SARS-CoV-2 Spike protein. The assay is described as follows: cell-based or functional assay. This is another data set of the same source.
Assay [13] has as its target T4, SARS-CoV-2 RBD (residues 331-550 of …).
For assay [14] the target is unchanged. The assay is described as follows: BLI (Octet): antibody on Protein A pins, SARS-CoV-2 RBD at 6, 1.5 and 0.4 µg/ml. The source holds these as a separate data set.
The target in assay [15] is T1, SARS-CoV-2 Spike protein. The source holds these as a separate data set.
Assay [16] addresses T4, SARS-CoV-2 RBD (residues 331-550 of …). As to the kind of experiment: BLI.
The target in assay [17] is T3, SARS-CoV RBD (Sino Biological). The assay is described as follows: BLI.
In assay [18] the target is T4, SARS-CoV-2 RBD (residues 331-550 of …). The assay is described as follows: ELISA.
Assay [19] deals with T3, SARS-CoV RBD (Sino Biological). The assay is described as follows: ELISA. The source holds these as a separate data set.
Assay [20] has as its target T1, SARS-CoV-2 Spike protein. The assay is described as follows: cell-based or functional assay. The source holds these as a separate data set.
The target of another assay is SARS-CoV Spike protein (SARS-CoV, UniProt P59594 14-1255). The assay is described as follows: cell-based or functional assay.

B1: S2A4 (antibody, V domains shown)
VH: EVQLVESGGGLVQPGGSLRLSCAASGFTFSSYWMNWVRQAPGKGLEWVANIKQDGSEKYYVDSVKGRFTISRDNAKNSLFLQMNSLRAEDTAVYYCARVWWLRGSFDYWGQGTLVTVSS
VL: NFMLTQPHSVSESPGKTVTISCTGSSGSIASNYVQWYQQRPGSAPTTVIYEDNQRPSGVPDRFSGSIDSSSNSASLTISGLKTEDEADYYCQSYDSSNHVVFGGGTKLTVL
B1: the “neutralization IC50” value with SARS-CoV-2 Spike protein [1] was 3.45 µg/mL. In [2], the “IC50 (read off the curve)” value was about 0.06 µg/mL.

B2: S2D32 (antibody, V domains shown)
VH: EVQLVESGGGLVQPGRSLRLSCTSSGFTFGDYPMSWFRQAPGKGLEWVGFIRSKAYGGTTQYAASVKGRFTISRDDSKNIAYLQMNSLKTEDTAVYYCTREMWDCSGGRCYSPFFDYWGQGTLVTVSS
VL: EIVMTQSPATLSVSPGERATLSCRASQTVSSNLAWYQQKPGQAPRLLIYGASTRATGIPARFSGSGSGTEFTLTISSLQSEDFAVYYCQQYNNWRTFGQGTKLEIK
With B2, the “IC50 (read off the curve)” value in assay [3] is about 0.03 µg/mL. In addition, in the assay with SARS-CoV-2 Spike protein [4], the “neutralization IC50” value was determined as 0.036 µg/mL, the “neutralization IC80” value came out at 0.081 µg/mL, the “neutralization IC90” value was found to be 0.129 µg/mL and the “neutralization IC95” value was found to be 0.2 µg/mL. In addition, in [5], the binding result was “no binding”.

B3: S2H14 (antibody, V domains shown)
VH: not shown
VL: NFMLTQPHSVSESPGKTVTISCTRSSGSIASNYVQWYQQRPGSSPTTVIYEDNQRPSGVPDRFSGSIDSSSNSASLTISGLKTEDEADYYCQSYDSSNQVFGGGTKLTVL
As for B3, the “neutralization IC50” value with SARS-CoV-2 Spike protein [1] was found to be 0.847 µg/mL.

B4: S2D8 (antibody, V domains shown)
VH: EVQLLESGGGLVQPGGSLRLSCAASGFTFTTYAMSWVRQAPGKGLEWVSGISGSGGNTYHADSVKGRFTISRDNSKSTLYLQMNSLRAEDTAVYYCAKDLWFREILHGMDVWGEGTTVTVSS
VL: QSALTQPASVSGSPGQSITISCTGTSSDIGGYNYVSWYQHHPGKAPKIMIYEVTNRPSGVSNRFSGSKSGNTASLTISGLQAEDEADYYCSSYTSSNTYVFGTGTKVTVL
On to B4, for which, in the assay with SARS-CoV-2 Spike protein [4], the “neutralization IC50” value was 0.03 µg/mL, the “neutralization IC80” value is 0.058 µg/mL, the “neutralization IC90” value came out at 0.087 µg/mL and the “neutralization IC95” value came to 0.125 µg/mL. For the same molecule, the “IC50 (read off the curve)” value in assay [2] was about 0.03 µg/mL. Besides, the binding result in assay [5] is recorded as “no binding”.

B5: S2D25 (antibody, V domains shown)
VH: EVQLVESGGGLVQPGGSLRLSCAASGFPFNIYAMSWVRQAPGKGLEWVSGISGSGGSTYYADSVRGRFAISRDNSKNTLYLQMNSLRAEDTAEYYCAKDLWFREILHGMDVWGKGTTVTVSS
VL: B4 VL with I29V, K44R, I48L, T54S, T76S, N97S, T103A
For B5, the “IC50 (read off the curve)” value in assay [3] was about 0.03 µg/mL. Further, in the assay with SARS-CoV-2 Spike protein [4], the “neutralization IC50” value was 0.04 µg/mL, the “neutralization IC80” value came out at 0.091 µg/mL, the “neutralization IC90” value was 0.146 µg/mL and the “neutralization IC95” value came to 0.228 µg/mL. Besides, the binding result in assay [5] is given as “no binding”.

B6: S2A15 v1 (antibody, V domains shown)
VH: QVQLQESGPGLVKPSGTLSLTCAVSGGSISSSNWWSWVRQPPGKGLEWIGEIYHSGNTNYNPSLKSRVTISVDKSKNQFSLKLTSVTAADTAVYYCASRYCSSTSCPNWFDPWGQGTLVTVSS
VL: QSALTQPASVSGSPGQSITISCTGTSSDVGSYNLVSWYQQHPGKAPKFMIYEGSKRPSGVSNRFSGSKSGNTASLTISGLQAEDEADYYCCSYAGSSTWVFGGGTKLTVL
In general, EC50 refers to the concentration needed to bring the measured effect to its halfway point. In the assay with SARS-CoV-2 Spike protein [6], B6 yielded an EC50 of 0.656 µg/mL.

B7: S2A15 v2 (antibody, V domains shown)
VH: B6 VH with V2I, Q3T, Q5K
VL: B6 VL
In the assay with SARS-CoV-2 Spike protein [6], B7 gave an EC50 of 0.335 µg/mL.

B8: S2X129 (antibody, V domains shown)
VH: EVQLVQSGAEVKKPGASVKVSCKASGYTFTDYFMHWVRQAPGQGLEWMGWISPNSGGTNYAQRFQGRVTMTRDTSISTTYMELSRLRSDDTAVYYCARDQAYIVLAQGSGMDVWGQGTTVTVSS
VL: DIVMTQTPSSVSASVGDRVTITCRASQGISSWLAWYQQKPGKAPKLLISAASSLQSGVPSRFSGSGSGTDFTLTISTLQPEDFATYYCQQANSFPLAFGPGTKVDIK
The term IC50 denotes the concentration needed to halve the response being measured. A low value points to greater potency. The Kd is the free concentration of one partner at which half of the binding sites on the other are occupied at equilibrium, for simple one-to-one binding. Lower therefore signals a tighter complex. On to B8, for which, in assay [7], the half-maximal inhibitory concentration (IC50) is 0.0214 µg/mL. For the same molecule, in [8], binding was characterised by a dissociation constant (Kd) of 0.857 nM.

B9: S2H7 (antibody, V domains shown)
VH: EVQLVESGGGLVQPGGSLRLSCAASGFIVSSNYMSWVRQAPGKGLEWVSVIYSGGSTYYADSVKGRFTISRDNSKNTLYLQMNSLRAEDTSVYYCARDRQYSGSPSFDYWGQGTLVTVSS
VL: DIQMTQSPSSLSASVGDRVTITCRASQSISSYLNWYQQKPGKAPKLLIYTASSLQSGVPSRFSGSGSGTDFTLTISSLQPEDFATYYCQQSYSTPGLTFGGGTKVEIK
On to B9, for which, in the assay with SARS-CoV-2 Spike protein [1], the “neutralization IC50” value worked out at 0.195 µg/mL.

B10: S2X227 (antibody, V domains shown)
VH: EVQLVQSGAEVKKPGASVKVSCKASGYTFTSYYMHWVRQAPGQGLEWMGIINPGGVSTTYAHYAQKFQGRVTMTRDTSTSTVYMELSSLRSEDTAVYYCARSIAVFWGDAFDIWGQGTMVTVSS
VL: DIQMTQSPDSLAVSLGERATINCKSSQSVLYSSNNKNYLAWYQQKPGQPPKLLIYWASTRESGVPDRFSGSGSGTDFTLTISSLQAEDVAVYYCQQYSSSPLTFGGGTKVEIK
B10: inhibition in assay [9] was half-maximal at 0.0274 µg/mL (IC50). Also, the concentration for a half-maximal effect (EC50) in assay [10] turned out to be 1.35 µg/mL; in assay [13], 0.00109 µg/mL. For the same molecule, the “neutralization IC50” value with SARS-CoV-2 Spike protein [11] amounted to 0.00445 µg/mL. For the same molecule, the “neutralization EC50 (interpolated)” value in the assay with SARS-CoV-2 Spike protein [12] worked out at 0.0053 µg/mL.

B11: S2X127 (antibody, V domains shown)
VH: EVQLVESGGGLIQPGGSLRLSCAASGLTVRSNYMSWVRQAPGKGLEWVSVMYSGGSTFYADSVKGRSTISRDNSKNTLYLQMNSLRAEDTAVYYCARGDIADDYHYGLDVWGQGTTVTVSS
VL: QSVLTQPPSVSGAPGQRVTISCTGSTSNIGAGYNVHWYQHFPGTSPKLLIYGNSNRPSGVPDRFSGSKSGTSASLAITGLQAEDEAAYYCQSYDSNLSGVFGGGTKLTVL
Take B11: in assay [7], inhibition was half-maximal at 0.0102 µg/mL (IC50). Also, the Kd in [14] is under 0.001 nM.

B12: S2B2 v1 (antibody, V domains shown)
VH: QVQLVESGGGVVQPGRSLRLSCAASGFTFSNFGMHWVRQAPGKGLEWVAVISYDGNNKFYADSVKGRFTISRDNSKNTLYLQMNSLRAEDTAVYYCAKPTVSFGVVIDAFDIWGQGTMVTVSS
VL: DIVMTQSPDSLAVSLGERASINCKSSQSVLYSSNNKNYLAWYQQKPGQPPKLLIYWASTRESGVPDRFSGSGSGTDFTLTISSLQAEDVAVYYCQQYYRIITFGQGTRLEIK
The molecule B12 came in with a half-maximal effective concentration (EC50) with SARS-CoV-2 Spike protein [15] of 0.0107 µg/mL.

B13: S2B2 v2 (antibody, V domains shown)
VH: B12 VH with Q1E, A97S
VL: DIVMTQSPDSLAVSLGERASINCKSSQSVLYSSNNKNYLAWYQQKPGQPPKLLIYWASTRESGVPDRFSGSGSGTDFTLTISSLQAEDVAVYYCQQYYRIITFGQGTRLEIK
As for B13, the EC50 with SARS-CoV-2 Spike protein [15] was 0.00812 µg/mL.

B14: S2D22 (antibody, V domains shown)
VH: EVHLVESGGGLVQPGGSLKLSCAASGFTFSGSAMHWVRQASGKGLEWVGRIRTKANTYATAYAASVKGRFTISRDDSKNTAYLQMNSLKTEDTAVYYCTRPAPYDFLSDYYTGEQLDYWGQGTLVTVSS
VL: QSVLTQPPSVSGAPGQRVTISCTGSSSNIGAGYDVHWYQQLPGAAPKLLIYGNSNRPSGVPDRFSGSKSGTSASLAITGLQAEDEADYYCQSYDSSLSGPEVFGTGTKVTVL
For B14, the dissociation constant Kd in assay [16] was 5.21 nM; in [17] it was 53.5 nM. The “neutralization IC50” value with SARS-CoV-2 Spike protein [4] was found to be 0.865 µg/mL; with SARS-CoV-2 Spike protein [20], 1.03 µg/mL; in the assay with SARS-CoV Spike protein, 3.63 µg/mL. The “neutralization IC80” value in the assay with SARS-CoV-2 Spike protein [4] amounted to 3.28 µg/mL. Besides, the “neutralization IC90” value with SARS-CoV-2 Spike protein [4] was 7.16 µg/mL. The “neutralization IC95” value with SARS-CoV-2 Spike protein [4] worked out at 14.7 µg/mL. In addition, the EC50 amounted to 0.0353 µg/mL in assay [18] and 0.0422 µg/mL in assay [19].
